From article PMC9879097, “Borrelia burgdorferi DnaA and the Nucleoid-Associated Protein EbfC Coordinate Expression of the dnaX-ebfC Operon” come the findings set out here.

For series [1], the target named is T1, EbfC (Borrelia burgdorferi, UniProt O51418 1-99).
T1 sequence: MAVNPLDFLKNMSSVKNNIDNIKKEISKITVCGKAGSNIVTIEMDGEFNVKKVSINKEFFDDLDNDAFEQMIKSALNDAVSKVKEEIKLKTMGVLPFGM
The experiment in a line: competition; 50x excess vs N13; 50 mM Tris-HCl (pH not stated), 50 mM KCl, 1 mM EDTA, 1 mM PMSF, 1 mM DTT, 0.01% Tween 20, 10% glycerol; room temperature 15 min; GST-DnaA reactions with 1 mM MgCl2 and 1 mM ATP or ADP; 100 nM DNA or 20 nM RNA probe. Conditions: protein: recombinant; tags: N-terminal 6xHis (pET200); chain copies: 2.

For series [2], the target named is T2, GST-DnaA (Borrelia burgdorferi, UniProt P33768 1-486).
T2 sequence: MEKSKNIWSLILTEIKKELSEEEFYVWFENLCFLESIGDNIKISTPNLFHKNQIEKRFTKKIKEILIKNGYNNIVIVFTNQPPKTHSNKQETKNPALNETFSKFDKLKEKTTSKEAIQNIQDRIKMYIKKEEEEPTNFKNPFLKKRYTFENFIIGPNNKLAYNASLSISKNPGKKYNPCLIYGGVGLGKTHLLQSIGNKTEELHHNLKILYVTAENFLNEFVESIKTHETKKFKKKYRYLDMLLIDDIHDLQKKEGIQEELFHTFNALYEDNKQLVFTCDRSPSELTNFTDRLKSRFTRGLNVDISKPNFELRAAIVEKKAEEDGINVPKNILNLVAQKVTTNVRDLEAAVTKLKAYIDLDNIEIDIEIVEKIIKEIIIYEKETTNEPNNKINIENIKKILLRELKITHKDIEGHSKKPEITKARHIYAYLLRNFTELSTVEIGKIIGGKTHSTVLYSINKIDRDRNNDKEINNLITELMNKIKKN
The experiment in a line: competition; ATP, Mg2+; 10x excess vs N1; 50 mM Tris-HCl (pH not stated), 50 mM KCl, 1 mM EDTA, 1 mM PMSF, 1 mM DTT, 0.01% Tween 20, 10% glycerol; room temperature 15 min; GST-DnaA reactions with 1 mM MgCl2 and 1 mM ATP or ADP; 100 nM DNA or 20 nM RNA probe. Particulars: protein: recombinant; tags: N-terminal GST; blunt.

The target in series [3] is T1, EbfC. The experiment in a line: EMSA; poly(dI-dC) 2.5 ng/uL; 3.75-30 uM EbfC; 50 mM Tris-HCl (pH not stated), 50 mM KCl, 1 mM EDTA, 1 mM PMSF, 1 mM DTT, 0.01% Tween 20, 10% glycerol; room temperature 15 min; GST-DnaA reactions with 1 mM MgCl2 and 1 mM ATP or ADP; 100 nM DNA or 20 nM RNA probe. Conditions: protein: recombinant; tags: N-terminal 6xHis (pET200); chain copies: 2; label: 5' IRDye800 on strand 1; blunt.

Series [4] deals with T1, EbfC. In words: competition; 50x excess vs N13; only smaller complex eliminated; 50 mM Tris-HCl (pH not stated), 50 mM KCl, 1 mM EDTA, 1 mM PMSF, 1 mM DTT, 0.01% Tween 20, 10% glycerol; room temperature 15 min; GST-DnaA reactions with 1 mM MgCl2 and 1 mM ATP or ADP; 100 nM DNA or 20 nM RNA probe. Particulars: protein: recombinant; tags: N-terminal 6xHis (pET200); chain copies: 2.

For series [5], the target named is T1, EbfC. The experiment in a line: EMSA; 5-15 uM EbfC; two complexes; 50 mM Tris-HCl (pH not stated), 50 mM KCl, 1 mM EDTA, 1 mM PMSF, 1 mM DTT, 0.01% Tween 20, 10% glycerol; room temperature 15 min; GST-DnaA reactions with 1 mM MgCl2 and 1 mM ATP or ADP; 100 nM DNA or 20 nM RNA probe. Conditions: protein: recombinant; tags: N-terminal 6xHis (pET200); chain copies: 2; label: 5' Alexa Fluor 647 (probe).

B1: flaB RNA competitor (ssRNA)
RNA: AGGCAAAAGGAUUUGCCAAAGUCAGAAAUU
For B1, the binding result in series [1] was “no binding”.

B2: Competitor 6 (C6) (dsDNA)
DNA 1: TTTCAATTTTATTATATTTTTTATGTTTCATAAAATTCTTTTAAA
DNA 2: TTTAAAAGAATTTTATGAAACATAAAAAATATAATAAAATTGAAA
Regarding B2, the binding result in series [2] was “no binding”.

B3: Competitor 3 (C3) (dsDNA)
DNA 1: TTCATAAAATTCTTTTAAAGTAATAGCTCTGAGATATAAATATGT
DNA 2: ACATATTTATATCTCAGAGCTATTACTTTAAAAGAATTTTATGAA
As to B3, in series [2], the binding result was “binds”.

B4: probe 2, consensus EbfC motif (dsDNA)
DNA 1: GGATTTGTCTTTTTGTAACTTTCAATTTTA
DNA 2: TAAAATTGAAAGTTACAAAAAGACAAATCC
Turning to B4, the binding result in series [3] is “binds”.

B5: unlabeled dnaX-ebfC RNA competitor (ssRNA)
RNA: GGAUUUGUCUUUUUGUAACUUUCAAUUUUA
In the case of B5, the binding result in series [4] was “binds”.

B6: Competitor 2 (C2) (dsDNA)
DNA 1: GGATTTGTCTTTTTGTAACTTTCAATTTTATTATATTTTTTATGT
DNA 2: ACATAAAAAATATAATAAAATTGAAAGTTACAAAAAGACAAATCC
Turning to B6, the binding result in series [2] is given as “binds”.

B7: Competitor 5 (C5) (dsDNA)
DNA 1: AAATGCAATGTTTTGCTTTATGTTAAGATATGGATTTGTCTTTTT
DNA 2: AAAAAGACAAATCCATATCTTAACATAAAGCAAAACATTGCATTT
B7: the binding result in series [2] is “no binding”.

B8: EbfC RNA, dnaX-ebfC 5' UTR 30-mer (ssRNA)
RNA: B5 RNA
On to B8, for which, in series [5], the binding result was “binds”.
